Experimental findings from publication PMC11239674 are described below.

Changes are numbered by the printed parent chain.

Holding throughout (assay): MST
Conditions in all cases: 25 mM Tris-HCl pH 8.0, 150 mM NaCl (150 mM LiCl for Sc1 LiCl), 1 mM DTT, 0.1 mg/ml BSA; 20 nM Cy5-RNA; about 2 min incubation; temperature not stated; low values mean tight binding

Series [1] deals with T1, AtGRP7 (Arabidopsis thaliana) (UniProt Q03250).
T1 sequence: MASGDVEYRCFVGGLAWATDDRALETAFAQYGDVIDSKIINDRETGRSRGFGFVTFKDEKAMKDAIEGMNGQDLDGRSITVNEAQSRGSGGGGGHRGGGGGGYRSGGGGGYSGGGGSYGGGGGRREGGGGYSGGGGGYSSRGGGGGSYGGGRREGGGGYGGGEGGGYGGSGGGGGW

Series [2] deals with T2, AtGRP7StoE S132E;S139E (Arabidopsis thaliana) (UniProt Q03250).
T2 sequence: T1 sequence with S132E, S139E

In series [3] the target is T3, BnGRP7 (Brassica napus) (UniProt A0A078J5Z4).
T3 sequence: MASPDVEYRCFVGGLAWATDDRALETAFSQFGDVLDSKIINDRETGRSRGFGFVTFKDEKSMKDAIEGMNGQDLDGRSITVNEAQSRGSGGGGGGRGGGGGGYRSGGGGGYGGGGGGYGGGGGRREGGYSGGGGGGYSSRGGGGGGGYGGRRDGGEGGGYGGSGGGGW

The target in series [4] is T4, AtGRP7StoG S132G;S139G (Arabidopsis thaliana) (UniProt Q03250).
T4 sequence: T1 sequence with S132G, S139G

The target of series [5] is T5, AtGRP7YtoE Y103E;Y111E;Y118E;Y131E;Y138E;Y148E;Y159E;Y167E (Arabidopsis thaliana) (UniProt Q03250).
T5 sequence: T1 sequence with Y103E, Y111E, Y118E, Y131E, Y138E, Y148E, Y159E, Y167E

Series [6] deals with T6, AtGRP7YtoG Y103G;Y111G;Y118G;Y131G;Y138G;Y148G;Y159G;Y167G (Arabidopsis thaliana) (UniProt Q03250).
T6 sequence: T1 sequence with Y103G, Y111G, Y118G, Y131G, Y138G, Y148G, Y159G, Y167G

Series [7] concerns the target T7, AtBnGRP7 (Arabidopsis thaliana / Brassica napus chimera) (UniProt Q03250).
T7 sequence: T3 sequence with P4G, S29A, F31Y, L35I, S61A

For series [8], the target named is T8, AtGRP7short (Arabidopsis thaliana) (UniProt Q03250).
T8 sequence: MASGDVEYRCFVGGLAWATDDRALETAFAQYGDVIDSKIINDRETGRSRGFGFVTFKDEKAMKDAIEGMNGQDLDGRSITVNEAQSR

In general, Kd refers to a measure of binding affinity in units of concentration. Take AtCOR15A: the Kd was 224 nM in series [1]; 738 nM in series [2]; 323 nM in series [3]; 2230 nM in series [4]; 23400 nM in series [5]; 3750 nM in series [6]. For the same substance, the Kd in series [7] came out at 741 nM.

On to “GGAUGGCGAUGUCUUUCUCAGGAGCUGUUCUCACUGGUAUGGCUUCUUCUUUCCACAGCGGAGCCAAGCAGAGCAGCUUCGGCGCUGUCAGAGUCGGCCAGAAAACUCAGUUCGUCGUCGUUUCUCAACGCAAGAAGUCGUUGAUCUACGCCGCUAAAGGUGACGGCAACAUCCUCGAUGACCUCAACGAGGCCACAAAGAAAGCUUCAGAUUUCGUGACGGAUAAAACAAAAGAGGCAUUAGCAGAUGGUGAGAAAGCGAAAGACUACGUUGUUGAAAAAAACAGUGAAACCGCAGAUACAUUGGGUAAAGAAGCUGAGAAAGCUGCGGCGUAUGUGGAGGAGAAAGGAAAAGAAGCCGCAAACAAGGCGGCAGAGUUCGCGGAGGGUAAAGCAGGAGAGGCUAAGGAUGCCACAAAGUAG [AtCOR15A]”, for which the Kd in series [1] was found to be 62 nM; in series [2] it was 2470 nM; in series [3] it was 153 nM; in series [4], 2300 nM; in series [6], 2700 nM; in series [7], 548 nM.

For “GGAUGUCUGAAGUUGAGUACCGGUGCUUUGUCGGCGGCCUUGCCUGGGCCACCAAUGAUGAAGAUCUUCAAAGGACGUUCUCACAGUUCGGCGACGUUAUCGAUUCUAAGAUCAUUAACGACCGCGAGAGUGGAAGAUCAAGGGGAUUCGGAUUCGUCACCUUCAAGGACGAGAAAGCCAUGAGGGAUGCGAUUGAAGAGAUGAACGGUAAAGAGCUCGAUGGACGUGUCAUCACCGUGAACGAGGCUCAGUCGAGAGGUAGCGGCGGUGGCGGAGGAGGCCGUGGUGGAAGCGGUGGUGGUUACCGCAGCGGAGGCGGUGGUGGAUACUCAGGAGGCGGUGGCGGCGGAUACUCAGGAGGAGGCGGUGGUGGUUACGAGAGACGUAGCGGAGGUUACGGAUCUGGUGGAGGCGGUGGUGGCCGAGGAUACGGUGGUGGUGGACGCCGUGAGGGAGGUGGCUACGGAGGCGGUGAUGGUGGAAGUUACGGAGGCGGUGGUGGCGGCUGGUAA [AtGRP8]”, the Kd in series [1] came out at 177 nM; in series [2], 937 nM; in series [3], 9160 nM; in series [4] it was 493 nM; in series [5], 2790 nM; in series [6], 381 nM. In series [7], this substance had a Kd of 135 nM.

Take “GGAUUUGCGCAUUAAACCAAAAAGUGUCACGUGAUAUGUCCCCAACCACUACGAAUUUUAACUACAGAUUUAACCAUGGUUAAACCAGAAUUCACGUAAACCGACUCUAAACCUAGAAAAUAUCUAAACCUUGGUUAAUAUCUCAGCCCCCUUAUAAAUAACGAGACUUCGUCUACAUCGUUCUACACAUCUCACUGCUCACUACUCUCACUGUAAUCCCUUAGAUCUUCUUUUCAAAUUUCAAUGGCGUCCGGUGAUGUUGAGUAUCGGUGCUUCGUUGGAGGUCUAGCAUGGGCCACUGAUGACAGAGCUCUUGAGACUGCCUUCGCUCAAUACGGCGACGUUAUUGAUUCCAAGGUCUGUUACACGCCGAGAUCGGACUCCGAGUGAUAUCGAUGAUCUCAUCCUCGACGGAUCUGUUCCGAUCUUGUGUUUCUCUGUUACUUGAUUCGAUUACUCUGUUACUAUUCUCGUUCUUUGUUACUACUACUACUACUACUGUUACUUGUAUUUUCCCAAAUCGGUACGUUCAUCUUCCUGCUUCUGUGAGCCCGGAGAUCGAUCGGAUUUUUUUGUAUUUUGUAUAUUUGUUGUAGAUCUAAAUGCUUUUGUUCAGUUUUGUUGGAUUGUUUUGCUGAUCUGGUUUUUGUAUUAUUUGGAUAACAGAUCAUUAACGAUCGUGAGACUGGAAGAUCAAGGGGAUUCGGAUUCGUCACCUUCAAGGAUGAGAAAGCCAUGAAGGAUGCGAUUGAGGGAAUGAACGGACAAGAUCUCGAUGGCCGUAGCAUCACUGUUAACGAGGCUCAGUCACGAGGAAGCGGUGGCGGCGGAGGCCACCGUGGAGGUGGUGGCGGUGGAUACCGCAGCGGCGGUGGUGGAGGUUACUCCGGUGGAGGUGGUAGCUACGGAGGUGGCGGCGGUAGACGCGAGGGUGGAGGAGGAUACAGCGGCGGCGGCGGCGGUUACUCCUCAAGAGGUGGUGGUGGCGGAAGCUACGGUGGUGGAAGACGUGAGGGAGGAGGAGGAUACGGUGGUGGUGAAGGAGGAGGUUACGGAGGAAGCGGUGGUGGUGGAGGAUGGUAAUUCCUUUAAUUAGGUUUGGGAUUACCAAUGAAUGUUCUCUCUCUCGCUUGUUAUGCUUCUACUUGGUUUUGUGUGUUCUCUAUUUUGUUCUGGUUCUGCUUUAGAUUUGAUGUAACAGUUCGUGAUUAGGUAUUUUGGUAUCUGGAAACGUAAUGUUAAGUCACUUGUCAUUCUCUAAAUAACAAAUUUCUUCGGAGAUAUUAUCUCUGUUGAUUGAUUCUAUCAUCUAAAUUUCGGAAAUGCUAAUCGGAUACCGGAAUGGUGCCUUUGUUACGAUUGAGUUACUUACAUCACUGAUACAACAAUGAAGUACUUACUGAUUAUCUUUAUACCAUUCACCACACUACCUUUGAUAUUCAACAAUGAAGUAGAAACCUAUUUGGUUCAUUCGCA [AtGRP7]”: the Kd in series [1] stood at 364 nM; in series [2] it was 1790 nM; in series [3], 16200 nM; in series [4], 606 nM; in series [5], 21300 nM; in series [6], 19300 nM. In series [7], the Kd worked out at 172 nM.

Take “GGCUCGAAACGAGGAGAAAAAAUCAUUAGUUAUCGAAAAUGCUCACAUGAUGUGGGCCUAACCACUAACCCAAUUAACCACACAUCUUAAUCAGAGUAAGUUGAAACAAAUCUUUCAGCAAACCCUAGAAAACAUGUUUAACCCUAGUUAUUACGUCACACCUGUUCUAUAAAUUAAGGCUGCGUCUUAUCACCUCAAAUCACAUAAGUCUCUCUCUUACAUUUUGAAACCCUAAUUUCUCUUCUUUUCCCCAAAAAAAAAUGUCUGAAGUUGAGUACCGGUGCUUUGUCGGCGGCCUUGCCUGGGCCACCAAUGAUGAAGAUCUUCAAAGGACGUUCUCACAGUUCGGCGACGUUAUCGAUUCUAAGGUCUGUUACACGAGAGAUCGGUCUCCCGGAUCGAGCCGAUUCCGAUGAUUCUGAUCCUCGACGGAUCUGAUUCCGAUCUGUUUCUCUGUUACUUGAUUCGAUUACUGUUACUAUGUUCUCUCUCGUUCUUUGUUACUGUUACUUAAUUUGUCCCAUCGGUACGUUCAUCUUCCUGCUUCUAUGAGCUCGGAGAUCGAUCGAUUUUUGCUUUAUAUUCAUCGCUUUGUUUUAUAUUCCUUCCACGAUUGUUUUUGCUGAUGUGUAUGAUUUUGUUUGUUUACAGAUCAUUAACGACCGCGAGAGUGGAAGAUCAAGGGGAUUCGGAUUCGUCACCUUCAAGGACGAGAAAGCCAUGAGGGAUGCGAUUGAAGAGAUGAACGGUAAAGAGCUCGAUGGACGUGUCAUCACCGUGAACGAGGCUCAGUCGAGAGGUAGCGGCGGUGGCGGAGGAGGCCGUGGUGGAAGCGGUGGUGGUUACCGCAGCGGAGGCGGUGGUGGAUACUCAGGAGGCGGUGGCGGCGGAUACUCAGGAGGAGGCGGUGGUGGUUACGAGAGACGUAGCGGAGGUUACGGAUCUGGUGGAGGCGGUGGUGGCCGAGGAUACGGUGGUGGUGGACGCCGUGAGGGAGGUGGCUACGGAGGCGGUGAUGGUGGAAGUUACGGAGGCGGUGGUGGCGGCUGGUAAUCAAAGAUAGAGUUGUUUGCGUGCUGCUGCUCUGUUUUUGGUUUAGAUUUGGUUUUGUGUCACCACUUCUGGUUUGGUUAUCGUUCGUUUGGUUUACUUUUUUGAUGAAACAGUUUCGUUUAAGUCUUCUUUGUCUGGAACGAAAUGUUAAUUCGCGUGUUGUUUACUAAAUUUAUAACGUUUCCUUUUAACCAGAUUCGAGAUUUUCCCUCAAAUAAUUUAUCUUGUUAGACACAUGUAUUUAAUCGAACAGCAGCUAAAGGAUUCAAAUGAUUUUCUUAUCAAUAAUUACUAUAGUUUGAAAUUGAUUAGUUCUUUAACUUUUGACCUACCAAUA [AtGRP8]”: the Kd in series [1] was found to be 156 nM; in series [2] it was 923 nM; in series [3], 502 nM; in series [4] it was 1370 nM; in series [6], 3390 nM; in series [7], 312 nM.

Take UGGAGAAGCAGGGCACGUGCA [miR164]: the Kd in series [1] was 42 nM; in series [3], 21 nM; in series [8] it was 5930 nM.
